Test results as given in patent publication US20250145711A1 (Janssen / Centocor, published 2025).

Experiments:
[1] = molecular target: T1, human PSMA on prostate cancer cell lines (22RV1, C4-2B) (human, UniProt Q04609 1-750); assay: flow cytometry on C4-2B cells
T1 construct: also called PSMA-expressing cell lines
How it was run: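 22RV1 and C4-2B prostate cancer cells (50,000/well, RPMI/10% HI FBS) incubated 60 min at 37 °C with serially diluted antibodies. After washes, bound antibody detected with 2 μg/ml AlexaFluor647 goat anti-human Fc, 30 min at 4 °C, by flow cytometry.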

[2] = molecular target: T1, human PSMA on prostate cancer cell …; assay: flow cytometry on 22RV1 cells; 22RV1 cells
Procedure: 22RV1 and C4-2B cells were plated at 50,000 cells per well in 50 μl of assay medium (RPMI, 10% HI FBS) in V bottom plates. Serial dilutions of antibodies were prepared in assay medium with 50 μl of antibody dilutions added to the plates containing cells. The plates were incubated for 60 min at 37° C. at which time 100 μl of staining buffer (Becton Dickinson Cat #554657) was added to all wells of each plate. The plates were centrifuged at 300×G for 5 minutes and the medium was removed from the wells. 200 μl of staining buffer was added to all wells of each plate. The plates were centrifuged at 300× G for 5 minutes and the medium was removed from the wells. 50 μl of 2 μg/ml AlexaFluor647-labeled goat anti-human Fc was added to all wells of the plates and the plates were incubated for 30 minutes at 4° C. 150 μl of staining buffer was added to all wells of each plate. The plates were centrifuged at 300× G for 5 minutes and the medium was removed from the wells.

[3] = molecular target: PSMA on C4-2B human prostate tumor cells (human, UniProt Q04609 1-750); assay: flow cytometry, C4-2B cells
Sequence of PSMA on C4-2B human prostate tumor cells (Q04609 whole entry): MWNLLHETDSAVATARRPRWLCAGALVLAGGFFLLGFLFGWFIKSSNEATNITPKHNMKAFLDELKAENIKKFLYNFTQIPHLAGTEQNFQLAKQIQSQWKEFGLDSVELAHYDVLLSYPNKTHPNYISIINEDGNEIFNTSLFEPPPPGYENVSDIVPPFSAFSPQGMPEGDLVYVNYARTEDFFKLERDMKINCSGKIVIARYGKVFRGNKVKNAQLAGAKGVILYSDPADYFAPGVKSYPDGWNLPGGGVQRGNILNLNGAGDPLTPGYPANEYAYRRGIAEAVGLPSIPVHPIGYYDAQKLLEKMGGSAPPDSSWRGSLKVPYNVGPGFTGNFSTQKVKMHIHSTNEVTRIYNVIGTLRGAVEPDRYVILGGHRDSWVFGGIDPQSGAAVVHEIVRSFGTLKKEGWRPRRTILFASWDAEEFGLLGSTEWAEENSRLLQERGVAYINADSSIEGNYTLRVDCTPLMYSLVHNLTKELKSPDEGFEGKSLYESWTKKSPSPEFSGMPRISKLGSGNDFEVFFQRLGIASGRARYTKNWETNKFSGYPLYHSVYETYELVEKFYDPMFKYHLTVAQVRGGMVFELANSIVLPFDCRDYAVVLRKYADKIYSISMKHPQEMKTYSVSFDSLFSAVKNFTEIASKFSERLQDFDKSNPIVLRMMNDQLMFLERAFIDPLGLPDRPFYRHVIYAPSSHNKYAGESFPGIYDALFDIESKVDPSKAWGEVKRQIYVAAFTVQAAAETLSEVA
Procedure: Molecule concentrations ranged from 500-0 nM over 12-points at 3-fold dilution. […] Values reported in the Table 69 were generated by fitting the data to a four-parameter function for ligand binding generating values for y-min, y-max, EC50, and Hill. EC90 were calculated using the equation EC90=[…]\hat{ }(1/Hill)*EC50.

T1 sequence (Q04609 whole entry): as above

B1: PS3B918 (bispecific antibody, human IgG1, lambda, L234A L235A)
heavy 1: QVQLQQSGPRLVRPSQTLSLTCAISGDSVFNNNAAWSWIRQSPSRGLEWLGRTYYRSKWLYDYAVSVKSRITVNPDTSRNQFTLQLNSVTPEDTALYYCARGYSSSFDYWGQGTLVTVSSASTKGPSVFPLAPSSKSTSGGTAALGCLVKDYFPEPVTVSWNSGALTSGVHTFPAVLQSSGLYSLSSVVTVPSSSLGTQTYICNVNHKPSNTKVDKKVEPKSCDKTHTCPPCPAPEAAGGPSVFLFPPKPKDTLMISRTPEVTCVVVSVSHEDPEVKFNWYVDGVEVHNAKTKPREEQYNSTYRVVSVLTVLHQDWLNGKEYKCKVSNKALPAPIEKTISKAKGQPREPQVYTLPPSREEMTKNQVSLTCLVKGFYPSDIAVEWESNGQPENNYKTTPPVLDSDGSFLLYSKLTVDKSRWQQGNVFSCSVMHEALHNHYTQKSLSLSPG
light 1: QSALTQPASVSGSPGQSITISCTGTSSNIGTYKFVSWYQQHPDKAPKVLLYEVSKRPSGVSSRFSGSKSGNTASLTISGLQAEDQADYHCVSYAGSGTLLFGGGTKLTVLGQPKAAPSVTLFPPSSEELQANKATLVCLISDFYPGAVTVAWKADSSPVKAGVETTTPSKQSNNKYAASSYLSLTPEQWKSHRSYSCQVTHEGSTVEKTVAPTECS
heavy 2: EVQLVESGGGLVKPGGSLRLSCAASGFTFSRYNMNWVRQAPGKGLEWVSSINSNSRYIYYADSVKGRFTISRDSAKNSLYLQMNSLRAEDTAVYYCAKTMGDYYYYYGMDVWGQGTTVTVSSASTKGPSVFPLAPSSKSTSGGTAALGCLVKDYFPEPVTVSWNSGALTSGVHTFPAVLQSSGLYSLSSVVTVPSSSLGTQTYICNVNHKPSNTKVDKKVEPKSCDKTHTCPPCPAPEAAGGPSVFLFPPKPKDTLMISRTPEVTCVVVSVSHEDPEVKFNWYVDGVEVHNAKTKPREEQYNSTYRVVSVLTVLHQDWLNGKEYKCKVSNKALPAPIEKTISKAKGQPREPQVYTLPPSREEMTKNQVSLTCLVKGFYPSDIAVEWESNGQPENNYKTTPPVLDSDGSFFLYSRLTVDKSRWQQGNVFSCSVMHEALHNHYTQKSLSLSPG
light 2: SSELTQPPSVSGAPGQRVTISCAGSLSNIGAGYDVHWYQQLPGTAPKLLIYGNINRLSGVPERFSGSKSGTSASLAITGLQAEDGADYYCQSYDSSLSSYVFGTGTKVTVLGQPKAAPSVTLFPPSSEELQANKATLVCLISDFYPGAVTVAWKADSSPVKAGVETTTPSKQSNNKYAASSYLSLTPEQWKSHRSYSCQVTHEGSTVEKTVAPTECS
notes: FAB-A: CD3B891 (CD3B376 - K477); FAB-B: PSMB890
Q: Which results are given for B1?
A: EC50 [1]: 60 nM; EC50 [2]: ≥ 60 nM

B2: PSMB1069 (bispecific antibody, human IgG1, kappa, L234A L235A)
heavy: not shown
light: not shown
chain: QVQLVESGGGEVQPGRSLRLSCAASGFSFSGYGMHWVRQAPGKGLEWVAVMSYDGSNRFYVDSVRGRFSISRDNSKNTLYLQMNSLRPEDTAVYYCARDTVWGSHPDAFDIWGQGTVVTVSSGGSEGKSSGSGSESKSTGGSQSVLTQPPSVSVAPGQTARITCGGNNSGSKSVHWYQQKPGQAPVLVVYDDSDRPSGIPERFSGSNSGNTATLTISRVEAGDEADYYCQVWDSSSDHGVFGGGTKLTVLEPKSSDKTHTCPPCPAPEAAGGPSVFLFPPKPKDTLMISRTPEVTCVVVSVSHEDPEVKFNWYVDGVEVHNAKTKPREEQYNSTYRVVSVLTVLHQDWLNGKEYKCKVSNKALPAPIEKTISKAKGQPREPQVYVLPPSREEMTKNQVSLLCLVKGFYPSDIAVEWESNGQPENNYLTWPPVLDSDGSFFLYSKLTVDKSRWQQGNVFSCSVMHEALHNHYTQKSLSLSPG
notes: HC1/LC1 null arm; HC2 is the anti-PSMA scFv-Fc
Q: B2 was tested. Which “fold binding signal (Y-max) over the average” value [3] did it give?
A: 2 fold
